Reference: article PMC10397247

Key:
Assay in all cases: two-hybrid library CCmax;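 further: natural log of median RNA to DNA barcode read ratio; higher means stronger binding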
4H3590-AA = target: T1, 4H3590-AA
T1 chain: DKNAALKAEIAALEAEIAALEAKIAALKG

4H3625-AA = target: T2, 4H3625-AA; conditions: mean of both orientations
T2 chain: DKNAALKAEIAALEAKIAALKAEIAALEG

4H3697-AA = target: T3, 4H3697-AA; conditions: mean of both orientations
T3 chain: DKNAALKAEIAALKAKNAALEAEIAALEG

4H3753-AA = target: T4, 4H3753-AA; conditions: mean of both orientations
T4 chain: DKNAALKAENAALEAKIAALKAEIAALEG

4H384-AA = target: T5, 4H384-AA; conditions: mean of both orientations
T5 chain: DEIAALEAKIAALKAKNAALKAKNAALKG

4H3865-AA = target: T6, 4H3865-AA; conditions: mean of both orientations
T6 chain: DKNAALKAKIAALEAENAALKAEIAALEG

4H3905-AA = target: T7, 4H3905-AA; conditions: mean of both orientations
T7 chain: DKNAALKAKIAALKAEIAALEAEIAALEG

4H4038-AA = target: T8, 4H4038-AA; conditions: mean of both orientations
T8 chain: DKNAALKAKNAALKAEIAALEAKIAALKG

4H43-AA = target: T9, 4H43-AA; conditions: mean of both orientations
T9 chain: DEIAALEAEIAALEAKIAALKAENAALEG

4H451-AA = target: T10, 4H451-AA; conditions: mean of both orientations
T10 chain: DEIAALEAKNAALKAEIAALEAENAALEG

4H458-AA = target: T11, 4H458-AA; conditions: mean of both orientations
T11 chain: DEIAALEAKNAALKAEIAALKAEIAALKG

4H485-AA = target: T12, 4H485-AA; conditions: mean of both orientations
T12 chain: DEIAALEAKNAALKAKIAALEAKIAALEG

4H510-AA = target: T13, 4H510-AA; conditions: mean of both orientations
T13 chain: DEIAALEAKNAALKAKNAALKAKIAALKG

4H536-AA = target: T14, 4H536-AA; conditions: mean of both orientations
T14 chain: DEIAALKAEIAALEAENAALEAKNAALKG

4H570-AA = target: T15, 4H570-AA; conditions: mean of both orientations
T15 chain: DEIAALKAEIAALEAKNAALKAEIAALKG

4H629-AA = target: T16, 4H629-AA; conditions: mean of both orientations
T16 chain: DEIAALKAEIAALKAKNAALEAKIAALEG

4H710-AA = target: T17, 4H710-AA; conditions: mean of both orientations
T17 chain: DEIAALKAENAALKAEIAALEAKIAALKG

4H745-AA = target: T18, 4H745-AA; conditions: mean of both orientations
T18 chain: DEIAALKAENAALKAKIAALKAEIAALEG

4H797-AA = target: T19, 4H797-AA; conditions: mean of both orientations
T19 chain: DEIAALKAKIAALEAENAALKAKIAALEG

4H850-AA = target: T20, 4H850-AA; conditions: mean of both orientations
T20 chain: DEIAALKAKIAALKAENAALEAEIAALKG

4H891-AA = target: T21, 4H891-AA
T21 chain: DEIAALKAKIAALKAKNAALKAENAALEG

4H909-AA = target: T22, 4H909-AA; conditions: mean of both orientations
T22 chain: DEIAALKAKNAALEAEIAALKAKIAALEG

4H930-AA = target: T23, 4H930-AA; conditions: mean of both orientations
T23 chain: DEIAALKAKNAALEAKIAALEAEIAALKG

4H94-AA = target: T24, 4H94-AA; conditions: mean of both orientations
T24 chain: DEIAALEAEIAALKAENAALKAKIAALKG

4H_APH = target: T25, 4H_APH; conditions: mean of both orientations
T25 chain: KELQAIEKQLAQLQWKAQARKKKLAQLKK

4H_BCR = target: T26, 4H_BCR; conditions: mean of both orientations
T26 chain: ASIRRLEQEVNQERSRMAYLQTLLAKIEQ

4H_GCN4 = target: 4H_GCN4
Sequence of 4H_GCN4 (chain, as listed by the source): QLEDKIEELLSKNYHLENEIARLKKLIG

GCN2_T = conditions: mean of both orientations
O11-AA = target: T27, O11-AA; conditions: mean of both orientations
T27 chain: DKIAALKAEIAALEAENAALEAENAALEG

O13-AA = target: T28, O13-AA; conditions: mean of both orientations
T28 chain: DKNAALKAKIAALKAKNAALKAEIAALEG

O14-AA = target: T29, O14-AA; conditions: mean of both orientations
T29 chain: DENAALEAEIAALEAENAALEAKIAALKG

P5-AA-12HAA-A = target: T30, P5-AA-12HAA-A; conditions: mean of both orientations
T30 chain: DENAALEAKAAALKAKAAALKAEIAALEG

P5-AA-12HAA-D = target: T31, P5-AA-12HAA-D; conditions: mean of both orientations
T31 chain: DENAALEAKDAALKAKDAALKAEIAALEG

P5-AA-12HAA-E = target: T32, P5-AA-12HAA-E; conditions: mean of both orientations
T32 chain: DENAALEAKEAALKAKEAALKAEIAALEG

P5-AA-12HAA-H = target: T33, P5-AA-12HAA-H; conditions: mean of both orientations
T33 chain: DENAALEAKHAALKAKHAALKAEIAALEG

P5-AA-12HAA-K = target: T34, P5-AA-12HAA-K; conditions: mean of both orientations
T34 chain: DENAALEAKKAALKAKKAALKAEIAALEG

P5-AA-12HAA-L = target: T35, P5-AA-12HAA-L; conditions: mean of both orientations
T35 chain: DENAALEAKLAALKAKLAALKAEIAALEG

P5-AA-12HAA-R = target: T36, P5-AA-12HAA-R; conditions: mean of both orientations
T36 chain: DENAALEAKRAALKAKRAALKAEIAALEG

P5-AA-12HAA-S = target: T37, P5-AA-12HAA-S; conditions: mean of both orientations
T37 chain: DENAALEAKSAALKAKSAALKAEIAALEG

P5-AA-12HAA-T = target: T38, P5-AA-12HAA-T; conditions: mean of both orientations
T38 chain: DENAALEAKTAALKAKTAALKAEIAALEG

P5-AA-12HAA-V = target: T39, P5-AA-12HAA-V; conditions: mean of both orientations
T39 chain: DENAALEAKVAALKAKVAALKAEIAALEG

P5-AA-12HAA-Y = target: T40, P5-AA-12HAA-Y; conditions: mean of both orientations
T40 chain: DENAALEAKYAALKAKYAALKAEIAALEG

P5-AA-1HAA-N = target: T41, P5-AA-1HAA-N; conditions: mean of both orientations
T41 chain: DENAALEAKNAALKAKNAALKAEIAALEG

Binder: DKNAALKAEIAALEAEIAALEAKIAALKG [4H3590-AA]
- interaction score (4H3590-AA): 2.25
- interaction score (4H3625-AA): 2.07
- interaction score (4H3697-AA): -0.287
- interaction score (4H3753-AA): 0.435
- interaction score (4H384-AA): 1.26
- interaction score (4H3865-AA): -1.18
- interaction score (4H3905-AA): 2.01
- interaction score (4H4038-AA): -0.327
- interaction score (4H43-AA): 1.98
- interaction score (4H451-AA): -1.08
- interaction score (4H458-AA): 1.13
- interaction score (4H485-AA): 1.8
- interaction score (4H510-AA): -0.0505
- interaction score (4H536-AA): -0.687
- interaction score (4H570-AA): -0.136
- interaction score (4H629-AA): -0.923
- interaction score (4H710-AA): -1.14
- interaction score (4H745-AA): 1.02
- interaction score (4H797-AA): -1.01
- interaction score (4H850-AA): -0.0746
- interaction score (4H891-AA): -0.048
- interaction score (4H909-AA): -1.14
- interaction score (4H930-AA): -1.4
- interaction score (4H94-AA): -1.15
- interaction score (4H_APH): -0.247
- interaction score (4H_BCR): -0.0889
- interaction score (4H_GCN4): -1.16
- interaction score (GCN2_T): -0.424
- interaction score (O11-AA): -0.698
- interaction score (O13-AA): 1.33
- interaction score (O14-AA): -1.17
- interaction score (P5-AA-12HAA-A): 1.75
- interaction score (P5-AA-12HAA-D): -1.25
- interaction score (P5-AA-12HAA-E): -0.101
- interaction score (P5-AA-12HAA-H): 1.78
- interaction score (P5-AA-12HAA-K): 2.23
- interaction score (P5-AA-12HAA-L): 2.42
- interaction score (P5-AA-12HAA-R): 1.92
- interaction score (P5-AA-12HAA-S): 1.88
- interaction score (P5-AA-12HAA-T): 1.63
- interaction score (P5-AA-12HAA-V): 2.25
- interaction score (P5-AA-12HAA-Y): 2.53
- interaction score (P5-AA-1HAA-N): -0.0553
